This note sets out measurements from paper PMC3688715.

The test deals with Heteropneustes fossilis hepatic cytosolic arginase (ARG I) (Heteropneustes fossilis (endogenous in liver)). Description: SEC + other: SDS-PAGE and western blotting; native mass of the purified enzyme by gel filtration on Sephadex G-150 with four standard proteins (75±3 kDa); subunit mass by SDS-PAGE and western blotting (24 kDa); single band on native PAGE. A general note: Immunoblotting shows a protein as a band on a membrane.

In the case of “Heteropneustes fossilis hepatic cytosolic arginase (ARG I) (enzyme)”, the stoichiometry N (as a rule, the number of molecules, sites or subunits per partner or assembly) came out at 3.
